In patent US10913773B2, “Bicyclic peptidyl inhibitor of tumor necrosis factor-alpha” (Ohio State Innovation Foundation, priority 2016, dated 2021):
Positions of bridges follow the written chain, without caps; N, C: chain ends. Non-standard residues stand in square brackets, D forms with d. Primed or numbered codes have the meaning given here. *: point of attachment. FITC = O=C1OC2(c3ccc(O)cc3Oc3cc(O)ccc32)c2ccc(NC(=S)*)cc21; FITC″ = Lys(FITC) = N6-fluorescein-thiocarbamoyl-L-lysine; trimesoyl″ = benzene-1,3,5-tricarbonyl scaffold; FITC′ = fluorescein isothiocyanate, on Lys NZ; trimesoyl = benzene-1,3,5-tricarbonyl; Nle = CCCC[C@H](N)C(=O)O; Dap = NC[C@H](N)C(=O)O; Sar = CNCC(=O)O

B1: C1-1 (peptide)
peptide: GY[dA]KY[dF]G[dK]H[Dap]K(FITC′)-NH2
modifications: bridge N-4-10 via trimesoyl″; not fully specified (N-terminus)
B2: C1-6 (peptide)
peptide: SY[dA]KY[dF]G[dK]H[Dap]K(FITC)-NH2
modifications: linker N-4-10 via trimesoyl″
B3: C1-7 (peptide)
peptide: TY[dA]KY[dF]G[dK]H[Dap]K(FITC″)-NH2
modifications: linker N-4-10 via trimesoyl
B4: C1-8 (peptide)
peptide: DY[dA]KY[dF]G[dK]H[Dap]K(FITC″)-NH2
modifications: linker N-4-10 via trimesoyl
B5: C1-9 (peptide)
peptide: NY[dA]KY[dF]G[dK]H[Dap]K(FITC″)-NH2
modifications: linker N-4-10 via trimesoyl
B6: C1-11 (peptide)
peptide: [Nle]Y[dS]KY[dF]G[dK]H[Dap]K(FITC′)-NH2
modifications: bridge N-4-10 via trimesoyl″; not fully specified (N-terminus)
B7: C1-5 (peptide)
peptide: [Nle]Y[dA]KY[dF]G[dK]H[Dap]K(FITC)-NH2
modifications: linker N-4-10 via trimesoyl″
B8: C1-30 (peptide)
peptide: [Nle]Y[dS]KY[dH]G[dK]H[Dap]K(FITC)-NH2
modifications: linker N-4-10 via trimesoyl″
B9: C1-44 (peptide)
peptide: [Nle]Y[dS]KY[dH]A[dK]H[Dap]K(FITC)-NH2
modifications: linker N-4-10 via trimesoyl″
B10: C1-45 (peptide)
peptide: [Nle]Y[dS]KW[dH]S[dK]H[Dap]K(FITC)-NH2
modifications: linker N-4-10 via trimesoyl″
B11: C1-46 (peptide)
peptide: [Nle]Y[dS]KW[dH]V[dK]H[Dap]K(FITC)-NH2
modifications: linker N-4-10 via trimesoyl″
B12: C1-47 (peptide)
peptide: [Nle]Y[dS]KW[dH]L[dK]H[Dap]K(FITC)-NH2
modifications: linker N-4-10 via trimesoyl″
B13: C1-50 (peptide)
peptide: [Nle]Y[dS]KW[dH]G[dK]F[Dap]K(FITC)-NH2
modifications: linker N-4-10 via trimesoyl″
B14: C1-43 (peptide)
peptide: [Nle]Y[dS]KY[dH][Sar][dK]H[Dap]K(FITC)-NH2
modifications: linker N-4-10 via trimesoyl″

These binders were tested against T1, Recombinant TNFα containing an N-terminal 13-aa ybbR tag (human, UniProt P01375 77-233, biotin at the ybbR tag in the ELISA assays) (assay: FA).
T1 construct: Expressed in E. coli; Same construct used unlabelled (FA) and biotinylated on NeutrAvidin (ELISA); also called tumor necrosis factor-alpha; human TNFα; not shown: N-terminal 13-aa ybbR tag
T1 sequence (P01375 77-233): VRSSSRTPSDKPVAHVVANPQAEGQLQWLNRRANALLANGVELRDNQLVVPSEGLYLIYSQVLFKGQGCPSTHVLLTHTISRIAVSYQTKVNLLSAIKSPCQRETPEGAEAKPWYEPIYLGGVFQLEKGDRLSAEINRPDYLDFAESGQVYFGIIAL
Experimental: (§1) The FA values were measured on a Molecular Devices Spectramax M5 spectrofluorimeter, with excitation and emission wavelengths at 485 and 525 nm, respectively. Equilibrium dissociation constants (KD) were determined by plotting the FA values as a function of TNFα concentration and fitting the data to the following equation $$Y = \frac{\left(Amin + \left(Amax \times \frac{Q_b}{Q_f} - Amin\right)\left(\frac{(L+x+K_d) - \sqrt{((L+x+K_d)^2 - 4Lx)}}{2L}\right)\right)}{\left(1 + \left(\frac{Q_b}{Q_f} - 1\right)\left(\frac{(L+x+K_d) - \sqrt{((L+x+K_d)^2 - 4Lx)}}{2L}\right)\right)}$$
(§2) where Y is the measured anisotropy at a given TNFα concentration x; L is the bicyclic peptide concentration; Qb/Qf is the correction fact for dye-protein interaction; Amax is the maximum anisotropy when all the peptides are bound to TNFα, while $Amin$ is the minimum anisotropy. […] The FA values were plotted against the competitor peptide concentration to determine the IC$50$ values.
For B1, the “fold decrease in TNFα binding against C1 (Phg at position-1)” value (“fold decrease in TNFα binding against C1” below) was at least 5 fold. With B2 the “fold decrease in TNFα binding against C1” value was at least 5 fold. In the case of B3, the “fold decrease in TNFα binding against C1” value is reported as at least 5 fold. B4 was tested, and the “fold decrease in TNFα binding against C1” value was at least 5 fold. In the case of B5, the “fold decrease in TNFα binding against C1” value is reported as at least 5 fold. B6 was tested, and the “fold reduction in affinity against D-Ala at position-3” value was about 2 fold. B7 was tested, and the “fold better binding against C1” value was about 2 fold. With B8 the “fold improvement in affinity against D-Phe at position-6” value was about 2 fold. In the case of B9, the “fold effect on affinity against Gly-7” value is reported as 2 fold. In the case of B10, the “fold effect on affinity against Gly-7” value is reported as 2 fold. In the case of B11, the “fold loss of binding against Gly-7” value is reported as 3 to 6 fold. In the case of B12, the “fold loss of binding against Gly-7” value is reported as 3 to 6 fold. In the case of B13, the “fold reduction in affinity against His at position-9” value is reported as about 30 fold. In the case of B14, the “fold effect on affinity against Gly-7” value is reported as 2 fold.

These binders were tested against T1, Recombinant TNFα containing an … (assay: FA, FITC-peptide + TNFα titration).
Experimental: as §1, §2
With B6 the Kd was 1500 nM. B8 was tested, and the Kd was 760 nM.

Biological target: T1, Recombinant TNFα containing an …
Assay: FA, FITC-peptide + TNFα titration
Remark: another data set of the same source
Experimental: as §1, §2
In the case of B1, the Kd is reported as 7100 nM. B2 gave a Kd of 6200 nM. In the case of B3, the Kd is reported as 7200 nM. For B4, the Kd was 7000 nM. B5 gave a Kd of 7900 nM. With B6 the Kd was 1500 nM. With B7 the Kd was 850 nM. Work on B8 yielded a Kd of 760 nM. In the case of B9, the Kd is reported as 320 nM. For B10, the Kd was 420 nM. B11 showed a Kd of 880 nM. In the case of B12, the Kd is reported as 1700 nM. Binder B13 has a Kd of 7500 nM. B14 showed a Kd of 330 nM.
